B1: SLC35F2 (parent)
chain: FVAFALCMFCLYSFMPLVIKVTSA
B2: CHMP4C (parent)
chain: SSKSRAAPSPQEALVRLRETEEML

Variants of: B1
Test: protein stability index of a GFP-peptide fusion (GPS, HEK-293T) (PSI 1-6); higher = more stable
Conditions: c terminus: a fixed tail appended
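Further: lentivirally expressed fusions sorted by FACS into six bins by GFP to DsRed ratio, PSI derived from sequencing read proportions per bin multiplied by bin number.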

| Variant | protein stability index |
| --- | --- |
| FVAFMLCMFCLYSFMPLVIKVTSA [A5M] | 2.38 |
| FVAFILCMFCLYSFMPLVIKVTSA [A5I] | 3.68 |
| FVAFFLCMFCLYSFMPLVIKVTSA [A5F] | 1.59 |
| FVAFHLCMFCLYSFMPLVIKVTSA [A5H] | 2.52 |
| FVAFKLCMFCLYSFMPLVIKVTSA [A5K] | 2.58 |
| FVAFCLCMFCLYSFMPLVIKVTSA [A5C] | 2.67 |
| FVAFLLCMFCLYSFMPLVIKVTSA [A5L] | 2.47 |
| FVAFELCMFCLYSFMPLVIKVTSA [A5E] | 2.48 |
| FVAFDLCMFCLYSFMPLVIKVTSA [A5D] | 3.05 |
| FVATALCMFCLYSFMPLVIKVTSA [F4T] | 3.63 |
| FVACALCMFCLYSFMPLVIKVTSA [F4C] | 2.52 |
| FVAKALCMFCLYSFMPLVIKVTSA [F4K] | 2.01 |
| FVANALCMFCLYSFMPLVIKVTSA [F4N] | 4.39 |
| FVAPALCMFCLYSFMPLVIKVTSA [F4P] | 4.46 |
| FVAAALCMFCLYSFMPLVIKVTSA [F4A] | 2.54 |
| FVAGALCMFCLYSFMPLVIKVTSA [F4G] | 2.87 |
| FVAVALCMFCLYSFMPLVIKVTSA [F4V] | 3.37 |
| FVAIALCMFCLYSFMPLVIKVTSA [F4I] | 2.65 |
| FVARALCMFCLYSFMPLVIKVTSA [F4R] | 3.58 |
| FVAMALCMFCLYSFMPLVIKVTSA [F4M] | 2.64 |
| FVAYALCMFCLYSFMPLVIKVTSA [F4Y] | 2.33 |
| FVADALCMFCLYSFMPLVIKVTSA [F4D] | 4.88 |
| FVAWALCMFCLYSFMPLVIKVTSA [F4W] | 3.22 |
| FVAEALCMFCLYSFMPLVIKVTSA [F4E] | 3.18 |
| FVAHALCMFCLYSFMPLVIKVTSA [F4H] | 2.26 |
| FVAQALCMFCLYSFMPLVIKVTSA [F4Q] | 2.23 |

| Variant | protein stability index |
| --- | --- |
| FVALALCMFCLYSFMPLVIKVTSA [F4L] | 4.33 |
| FLAFALCMFCLYSFMPLVIKVTSA [V2L] | 3.45 |
| FAAFALCMFCLYSFMPLVIKVTSA [V2A] | 2.72 |
| FEAFALCMFCLYSFMPLVIKVTSA [V2E] | 2.27 |
| FDAFALCMFCLYSFMPLVIKVTSA [V2D] | 2.14 |
| FTAFALCMFCLYSFMPLVIKVTSA [V2T] | 4.03 |
| FGAFALCMFCLYSFMPLVIKVTSA [V2G] | 3.29 |
| FFAFALCMFCLYSFMPLVIKVTSA [V2F] | 2.7 |
| FRAFALCMFCLYSFMPLVIKVTSA [V2R] | 2.37 |
| FPAFALCMFCLYSFMPLVIKVTSA [V2P] | 3.21 |
| FIAFALCMFCLYSFMPLVIKVTSA [V2I] | 4.37 |
| FKAFALCMFCLYSFMPLVIKVTSA [V2K] | 2.97 |
| FCAFALCMFCLYSFMPLVIKVTSA [V2C] | 2.5 |
| FNAFALCMFCLYSFMPLVIKVTSA [V2N] | 3.7 |
| FWAFALCMFCLYSFMPLVIKVTSA [V2W] | 2.44 |
| FSAFALCMFCLYSFMPLVIKVTSA [V2S] | 2.71 |
| FQAFALCMFCLYSFMPLVIKVTSA [V2Q] | 2.65 |
| RVAFALCMFCLYSFMPLVIKVTSA [F1R] | 4.03 |
| TVAFALCMFCLYSFMPLVIKVTSA [F1T] | 2.5 |
| PVAFALCMFCLYSFMPLVIKVTSA [F1P] | 2.61 |
| DVAFALCMFCLYSFMPLVIKVTSA [F1D] | 2.71 |
| MVAFALCMFCLYSFMPLVIKVTSA [F1M] | 2.59 |
| YVAFALCMFCLYSFMPLVIKVTSA [F1Y] | 2.99 |
| WVAFALCMFCLYSFMPLVIKVTSA [F1W] | 2.65 |
| AVAFALCMFCLYSFMPLVIKVTSA [F1A] | 2.36 |
| KVAFALCMFCLYSFMPLVIKVTSA [F1K] | 2.5 |

| Variant | protein stability index |
| --- | --- |
| GVAFALCMFCLYSFMPLVIKVTSA [F1G] | 3.04 |
| LVAFALCMFCLYSFMPLVIKVTSA [F1L] | 3.61 |
| NVAFALCMFCLYSFMPLVIKVTSA [F1N] | 3.06 |
| QVAFALCMFCLYSFMPLVIKVTSA [F1Q] | 3.03 |
| VVAFALCMFCLYSFMPLVIKVTSA [F1V] | 2.51 |
| HVAFALCMFCLYSFMPLVIKVTSA [F1H] | 3.02 |
| IVAFALCMFCLYSFMPLVIKVTSA [F1I] | 3.76 |
| EVAFALCMFCLYSFMPLVIKVTSA [F1E] | 3.64 |
| CVAFALCMFCLYSFMPLVIKVTSA [F1C] | 2.46 |
| FVRFALCMFCLYSFMPLVIKVTSA [A3R] | 3.31 |
| FVSFALCMFCLYSFMPLVIKVTSA [A3S] | 2.81 |
| FVEFALCMFCLYSFMPLVIKVTSA [A3E] | 2.62 |
| FVNFALCMFCLYSFMPLVIKVTSA [A3N] | 2.43 |
| FVHFALCMFCLYSFMPLVIKVTSA [A3H] | 2.44 |
| FVFFALCMFCLYSFMPLVIKVTSA [A3F] | 2.64 |
| FVPFALCMFCLYSFMPLVIKVTSA [A3P] | 1.98 |
| FVDFALCMFCLYSFMPLVIKVTSA [A3D] | 2.37 |
| FVLFALCMFCLYSFMPLVIKVTSA [A3L] | 2.38 |
| FVVFALCMFCLYSFMPLVIKVTSA [A3V] | 3.02 |
| FVTFALCMFCLYSFMPLVIKVTSA [A3T] | 2.21 |
| FVKFALCMFCLYSFMPLVIKVTSA [A3K] | 2.42 |
| FVMFALCMFCLYSFMPLVIKVTSA [A3M] | 2.65 |
| FVCFALCMFCLYSFMPLVIKVTSA [A3C] | 2.05 |
| FVIFALCMFCLYSFMPLVIKVTSA [A3I] | 2.84 |
| FVYFALCMFCLYSFMPLVIKVTSA [A3Y] | 3.12 |
| FVWFALCMFCLYSFMPLVIKVTSA [A3W] | 2.55 |

Variants of: B2
Test: as above
Conditions: c terminus: a fixed tail appended

| Variant | protein stability index |
| --- | --- |
| SSKSRAAPSPQEALVRLRETEEMH [L24H] | 4.37 |
| SSKSRAAPSPQEALVRLRETEEMR [L24R] | 4.22 |
| SSKSRAAPSPQEALVRLRETEEMQ [L24Q] | 5.69 |
| SSKSRAAPSPQEALVRLRETEEMG [L24G] | 4.97 |
| SSKSRAAPSPQEALVRLRETEEMD [L24D] | 5.37 |
| SSKSRAAPSPQEALVRLRETEEME [L24E] | 5.94 |
| SSKSRAAPSPQEALVRLRETEEMW [L24W] | 3.92 |
| SSKSRAAPSPQEALVRLRETEEMY [L24Y] | 3.64 |
| SSKSRAAPSPQEALVRLRETEEMM [L24M] | 3.11 |
| SSKSRAAPSPQEALVRLRETEEMN [L24N] | 5.32 |
| SSKSRAAPSPQEALVRLRETEEMF [L24F] | 4.25 |
| SSKSRAAPSPQEALVRLRETEEMT [L24T] | 3.92 |
| SSKSRAAPSPQEALVRLRETEEMI [L24I] | 2.52 |
| SSKSRAAPSPQEALVRLRETEEMS [L24S] | 4.53 |
| SSKSRAAPSPQEALVRLRETEEWL [M23W] | 1.55 |
| SSKSRAAPSPQEALVRLRETEEYL [M23Y] | 1.41 |

Reference: the supplement of paper PMC10567573
